Each substance was assayed against Np97 (N domain alone of wild-type p97) (UniProt P55072) (assay: ITC; VIMPx titrated into p97; iTC200, 25 C; 50 mM Tris pH 8.0, 150 mM NaCl, 2 mM MgCl2, 5% glycerol; no nucleotide added; one-site model). Settings: not given.
Chain of Np97 (N domain alone of wild-type p97) (P55072 whole entry): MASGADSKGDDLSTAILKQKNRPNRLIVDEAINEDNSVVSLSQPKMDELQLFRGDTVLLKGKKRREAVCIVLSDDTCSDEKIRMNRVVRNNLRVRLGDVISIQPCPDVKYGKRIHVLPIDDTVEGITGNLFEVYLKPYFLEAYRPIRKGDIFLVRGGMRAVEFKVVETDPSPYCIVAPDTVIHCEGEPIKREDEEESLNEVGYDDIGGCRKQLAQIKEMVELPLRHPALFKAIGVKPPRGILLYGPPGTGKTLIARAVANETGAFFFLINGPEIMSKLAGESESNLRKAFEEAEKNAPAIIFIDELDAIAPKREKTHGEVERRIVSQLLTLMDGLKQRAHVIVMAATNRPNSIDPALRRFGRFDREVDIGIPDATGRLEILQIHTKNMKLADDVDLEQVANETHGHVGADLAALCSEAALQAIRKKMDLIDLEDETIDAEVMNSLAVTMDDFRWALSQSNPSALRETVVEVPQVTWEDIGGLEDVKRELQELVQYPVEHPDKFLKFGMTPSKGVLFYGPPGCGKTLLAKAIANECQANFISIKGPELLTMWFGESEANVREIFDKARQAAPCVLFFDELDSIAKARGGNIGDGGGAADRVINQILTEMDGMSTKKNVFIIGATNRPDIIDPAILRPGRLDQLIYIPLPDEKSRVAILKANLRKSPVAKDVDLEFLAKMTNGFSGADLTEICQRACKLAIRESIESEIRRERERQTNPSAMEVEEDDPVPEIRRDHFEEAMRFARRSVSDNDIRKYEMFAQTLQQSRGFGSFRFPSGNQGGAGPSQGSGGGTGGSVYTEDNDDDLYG

Kd [µM] | stoichiometry N | Substance
6.58 | 1.27 | VIMPx (VCP-interacting membrane protein, residues 49-122) (from UniProt Q9BQE4 49-122) (domain or fragment)

These substances were tested against VIMP of canine pancreas microsomes (dog (endogenous in canine pancreas microsomes)) (assay: co-IP; immunodepletion: canine pancreas microsomes solubilized in 1% deoxyBigCHAP, supernatant incubated three times with Protein A beads containing anti-VIMP antibodies; unbound fractions immunoblotted). Settings: not given.

percent of microsome-associated p97 lost by co-depletion with VIMP [%] | Substance
< 90 | ER membrane-associated p97 of canine pancreas microsomes (natural protein)

Each substance was assayed against full-length wild-type p97 (^FLp97^wt) (UniProt P55072) (assay: GST pull-down). Settings: 2 mM AMP-PNP; n=3; parent: est. 1.0; read off a plot.
Chain of full-length wild-type p97 (^FLp97^wt) (P55072 whole entry): as above

Substance | ratio to parent
GST-tagged VIMP-N10 K88A | 0.14
GST-tagged VIMP-N10 Q79A | 0.87
GST-tagged VIMP-N10 V97A | 0.04

Results, then the substance that gave them:

ratio to parent | Substance
0.8 | GST-tagged VIMP-N10 K77A
0.14 | GST-tagged VIMP-N10 L82A
0.17 | GST-tagged VIMP-N10 L93A
0.24 | GST-tagged VIMP-N10 M89A
0.24 | GST-tagged VIMP-N10 R78A
0.07 | GST-tagged VIMP-N10 R86A

— PMC5725882
